Experimental data from publication PMC3458437.
Values joined by “and” are separate entries in the source; they are usually repeats but may differ in a detail not shown here. Identical values can stand only once.

Substrate: O=P(O)(O)CCO
Test: O2 consumption, Clark-type oxygen electrode, initial rates
Format: biochemical, Nitrosopumilus maritimus
Conditions: co-substrate O2 about 250 μM; Fe(II)-reconstituted enzyme; labelled compound

B1: methylphosphonate synthase (MPnS) (Nitrosopumilus maritimus SCM1) (protein)
chain: MEKKIDFKPDSYLIRSGNNFLGILNDIKRRPEDAANELGVSIEEINSIISGKQKISPSLIEKAVNIWPVNERDFYIVSDDCSSGILIMTSQDSIKSSRIMERAGKPYYEYRDTAMSKTAPFRPEWILELCKVENNDPENPKAQWNNGHFMHQFTYFIGEVNFYYKDPEGKKHVAIMNTGDSMYITPFTPHTFTTRDGASQNGLILALTYGSKLTGDIQQELSSLSLDCGSQYALDFTNHENASLSLLEYYFELSNLTKEKFAKRTNFSMETLADFFTKKKLPTFDELKIIAKALNVNSRDLMPNDLTESKVIVKTHDQCDHWKYPESGNYEFYELASTTALPHSKAFEIDVSSSEDLNLDLKVGLHQYVYNIGDSALTINWNYENKTYQKSLNPGDSAYIKPFVPHNFRGNGKILILRIGGKISGDSQRELSFVGRENTQRAISETMQWFDPKGSNS
Km: 7.1 ± 0.8 µM and 6.5 ± 1.5 µM and 7.2 ± 1.4 µM
kcat: 0.17 ± 0.01 s⁻¹
kcat/Km: 24000 M⁻¹ s⁻¹ (2×) and 26000 M⁻¹ s⁻¹
